Laboratory results from article PMC12075686, “Structural basis of phosphorylation-independent nuclear import of CIRBP by TNPO3” (Nature Communications, 2025).
“And” between values parts separate entries of the source, which are not always exact repeats. Identical values can stand only once. One block for each molecule: values may come before it.

Experiments:
[1] = target: TNPO3; details: SAXS, monomer/dimer equilibrium; read-out: dissociation constant of TNPO3 dimerization in solution; cited from earlier work
Text: We next aimed to gain insight into the structural basis for TNPO3 recognition of RSY-NLS and obtained crystals of TNPO3 C511A bound to CIRBP^RSY that diffracted X-rays to 2.94 Å resolution. This TNPO3 mutant was used for the determination of the 3D X-ray structure of the TNPO3-SRSF1 complex and increases TNPO3 stability. […] TNPO3 forms a dimer in the asymmetric unit of the crystal structure, as previously observed ... || page 9: Figure 2: Is TNPO3 a monomer in solution? In order for the reader to understand where are the additional contact points described in Sup Fig 2, a global view of the different contact points would be helpful. […] Out of the additional contact points in the crystal structure, the intermolecular salt bridge of E304 with K877 is the only contact which we could observe in both directions (chain A – chain B and vice versa). We in ...

[2] = target: T1, Transportin 3 (TNPO3), full-length wild type (human, UniProt Q9Y5L0 1-923); experiment: ITC
T1 chain: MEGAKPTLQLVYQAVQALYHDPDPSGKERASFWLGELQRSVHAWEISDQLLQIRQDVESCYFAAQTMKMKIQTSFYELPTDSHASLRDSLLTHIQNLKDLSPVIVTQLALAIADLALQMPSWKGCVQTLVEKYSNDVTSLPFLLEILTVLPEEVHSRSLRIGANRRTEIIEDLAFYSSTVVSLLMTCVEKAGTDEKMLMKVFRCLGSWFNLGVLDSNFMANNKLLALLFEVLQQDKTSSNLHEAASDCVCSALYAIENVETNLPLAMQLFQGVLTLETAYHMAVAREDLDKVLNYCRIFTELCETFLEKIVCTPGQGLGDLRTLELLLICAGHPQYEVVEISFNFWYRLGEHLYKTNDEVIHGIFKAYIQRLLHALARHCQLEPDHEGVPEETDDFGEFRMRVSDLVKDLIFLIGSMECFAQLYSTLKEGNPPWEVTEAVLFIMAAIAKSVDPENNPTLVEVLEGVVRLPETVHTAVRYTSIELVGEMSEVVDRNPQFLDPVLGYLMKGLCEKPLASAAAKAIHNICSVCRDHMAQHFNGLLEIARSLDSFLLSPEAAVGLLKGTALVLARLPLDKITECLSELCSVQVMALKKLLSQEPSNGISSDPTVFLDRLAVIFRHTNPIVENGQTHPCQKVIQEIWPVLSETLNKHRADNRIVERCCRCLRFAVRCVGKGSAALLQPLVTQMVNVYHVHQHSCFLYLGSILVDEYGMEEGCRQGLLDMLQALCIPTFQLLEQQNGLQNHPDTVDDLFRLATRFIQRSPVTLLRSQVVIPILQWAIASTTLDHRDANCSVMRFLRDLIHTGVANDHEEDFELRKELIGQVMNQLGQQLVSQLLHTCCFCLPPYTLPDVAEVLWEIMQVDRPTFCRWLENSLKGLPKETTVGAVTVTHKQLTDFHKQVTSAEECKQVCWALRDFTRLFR

[3] = target: T1, Transportin 3 (TNPO3), full-length wild …; experiment: ITC; rep2
[4] = target: T2, Transportin 3 (TNPO3), full-length wild type (human, UniProt Q9Y5L0 1-923); experiment: ITC; 100 µM ligand in the syringe injected (28 x 10 µL) into 10 µM TNPO3 (WT or C511A) in the cell; 25 °C; 50 mM Tris-HCl pH 7.5, 150 mM NaCl, 2 mM TCEP, 0.04% NaN3; details: both partners purified
T2 construct: Transportin 3 (TNPO3), human, full-length wild type; For the NMR experiments made 15N-labelled with 13C-methyl labelling of isoleucine and methionine side chains ([IM-methyl 13C]); Vector pETM11-His6-protein A with a TEV site downstream of the protein A tag; also called TNPO3 WT; TNPO3 FL WT; source: E. coli BL21-(DE3) Star, purified (Ni-NTA, TEV cleavage, second Ni-NTA, SEC Superdex 200); not …
T2 sequence (looked up): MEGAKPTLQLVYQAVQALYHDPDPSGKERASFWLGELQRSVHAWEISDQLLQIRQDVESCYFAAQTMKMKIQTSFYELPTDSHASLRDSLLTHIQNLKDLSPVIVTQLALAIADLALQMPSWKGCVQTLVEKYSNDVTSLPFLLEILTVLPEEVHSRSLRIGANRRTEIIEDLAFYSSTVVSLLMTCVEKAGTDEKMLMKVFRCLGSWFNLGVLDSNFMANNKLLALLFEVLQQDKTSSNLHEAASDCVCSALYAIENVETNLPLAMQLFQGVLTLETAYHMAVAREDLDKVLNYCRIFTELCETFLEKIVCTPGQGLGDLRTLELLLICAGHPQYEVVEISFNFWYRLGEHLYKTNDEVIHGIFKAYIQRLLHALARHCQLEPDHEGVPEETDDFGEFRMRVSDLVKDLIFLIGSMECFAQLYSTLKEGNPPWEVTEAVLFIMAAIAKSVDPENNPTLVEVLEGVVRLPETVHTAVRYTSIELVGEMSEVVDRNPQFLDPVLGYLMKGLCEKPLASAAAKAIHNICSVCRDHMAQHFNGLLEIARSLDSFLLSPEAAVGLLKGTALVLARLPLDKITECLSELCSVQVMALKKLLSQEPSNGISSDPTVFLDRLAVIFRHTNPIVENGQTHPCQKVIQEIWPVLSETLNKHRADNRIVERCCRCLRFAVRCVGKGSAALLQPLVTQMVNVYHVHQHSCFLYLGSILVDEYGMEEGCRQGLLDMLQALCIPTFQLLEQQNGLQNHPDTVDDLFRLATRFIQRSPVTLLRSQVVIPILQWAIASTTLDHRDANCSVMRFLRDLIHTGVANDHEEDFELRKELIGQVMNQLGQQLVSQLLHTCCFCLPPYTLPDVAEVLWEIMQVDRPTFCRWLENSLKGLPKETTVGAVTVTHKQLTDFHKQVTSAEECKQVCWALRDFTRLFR

[5] = target: T3, Transportin 3 (TNPO3) C511A mutant (human, UniProt Q9Y5L0 1-923, C511A); experiment: as above; details: both partners purified
T3 construct: Transportin 3 (TNPO3), human, C511A mutant that increases stability; Two chains in the asymmetric unit of 8CMK; source: E. coli BL21-(DE3) Star, purified (Ni-NTA, TEV cleavage, second Ni-NTA, SEC Superdex 200)
T3 sequence: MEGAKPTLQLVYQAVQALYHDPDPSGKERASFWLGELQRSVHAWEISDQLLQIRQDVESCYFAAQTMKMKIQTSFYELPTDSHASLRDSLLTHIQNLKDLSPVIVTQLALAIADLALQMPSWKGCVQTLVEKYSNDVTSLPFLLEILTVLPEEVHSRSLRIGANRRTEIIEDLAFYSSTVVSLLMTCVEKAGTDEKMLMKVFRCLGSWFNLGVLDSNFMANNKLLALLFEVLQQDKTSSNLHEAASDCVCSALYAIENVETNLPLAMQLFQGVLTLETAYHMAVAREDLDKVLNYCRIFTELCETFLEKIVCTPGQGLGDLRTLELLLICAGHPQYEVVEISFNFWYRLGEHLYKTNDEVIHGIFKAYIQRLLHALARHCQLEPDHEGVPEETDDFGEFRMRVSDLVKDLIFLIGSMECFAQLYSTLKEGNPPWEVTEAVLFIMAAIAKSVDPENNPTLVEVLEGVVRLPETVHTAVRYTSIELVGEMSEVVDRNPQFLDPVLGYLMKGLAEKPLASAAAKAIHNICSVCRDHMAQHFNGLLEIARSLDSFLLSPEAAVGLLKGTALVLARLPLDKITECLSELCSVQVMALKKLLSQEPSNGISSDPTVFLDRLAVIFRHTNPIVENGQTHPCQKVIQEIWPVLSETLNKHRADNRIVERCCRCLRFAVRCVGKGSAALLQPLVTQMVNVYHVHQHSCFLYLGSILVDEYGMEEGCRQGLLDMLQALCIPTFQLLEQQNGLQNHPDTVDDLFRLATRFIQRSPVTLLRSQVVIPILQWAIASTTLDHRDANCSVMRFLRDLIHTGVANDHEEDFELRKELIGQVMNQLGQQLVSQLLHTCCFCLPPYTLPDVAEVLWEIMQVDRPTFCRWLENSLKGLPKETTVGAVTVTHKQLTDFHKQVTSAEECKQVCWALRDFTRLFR

[6] = target: T4, Transportin 3 (TNPO3) C511A mutant (human, UniProt Q9Y5L0 1-923, C511A); experiment: ITC
T4 sequence: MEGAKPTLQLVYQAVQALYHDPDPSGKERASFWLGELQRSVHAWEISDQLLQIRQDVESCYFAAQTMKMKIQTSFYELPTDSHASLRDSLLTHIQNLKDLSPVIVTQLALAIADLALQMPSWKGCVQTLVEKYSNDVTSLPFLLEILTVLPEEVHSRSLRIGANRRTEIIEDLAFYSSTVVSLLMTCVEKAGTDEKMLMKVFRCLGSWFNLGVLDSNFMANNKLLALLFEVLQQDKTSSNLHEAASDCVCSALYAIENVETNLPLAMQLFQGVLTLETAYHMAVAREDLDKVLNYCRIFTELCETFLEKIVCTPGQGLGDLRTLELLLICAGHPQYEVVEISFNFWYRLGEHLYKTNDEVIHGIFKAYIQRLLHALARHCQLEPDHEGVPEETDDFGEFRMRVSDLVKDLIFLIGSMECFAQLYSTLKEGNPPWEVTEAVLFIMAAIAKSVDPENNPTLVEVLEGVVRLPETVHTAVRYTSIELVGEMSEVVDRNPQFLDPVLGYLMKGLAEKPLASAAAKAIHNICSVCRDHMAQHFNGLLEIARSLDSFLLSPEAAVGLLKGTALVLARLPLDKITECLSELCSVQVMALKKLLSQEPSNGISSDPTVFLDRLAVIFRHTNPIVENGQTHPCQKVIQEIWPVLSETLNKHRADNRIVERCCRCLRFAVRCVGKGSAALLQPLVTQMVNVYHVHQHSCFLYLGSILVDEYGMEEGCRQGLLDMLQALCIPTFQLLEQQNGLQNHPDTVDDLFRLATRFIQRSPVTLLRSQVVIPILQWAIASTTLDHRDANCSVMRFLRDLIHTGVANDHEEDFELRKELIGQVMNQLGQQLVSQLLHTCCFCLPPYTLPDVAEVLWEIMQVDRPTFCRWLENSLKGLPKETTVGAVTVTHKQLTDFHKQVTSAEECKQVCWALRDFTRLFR

[7] = target: T4, Transportin 3 (TNPO3) C511A mutant; experiment: ITC; remark: listed apart in the source
[8] = target: T4, Transportin 3 (TNPO3) C511A mutant; experiment: ITC; rep2
[9] = target: T2, Transportin 3 (TNPO3), full-length wild …; experiment: NMR titration; 1H NMR spectra of 50 µM peptide free and with a stoichiometric amount (50 µM) of TNPO3 WT; line broadening of peptide signals; details: both partners purified
[10] = target: Transportin 3 (TNPO3) C511A mutant (human) (UniProt Q9Y5L0); experiment: ITC; 100 µM ligand in the syringe injected (28 x 10 µL) into 10 µM TNPO3 (WT or C511A) in the cell; 25 °C; 50 mM Tris-HCl pH 7.5, 150 mM NaCl, 2 mM TCEP, 0.04% NaN3

Molecule: TNPO3: Transportin 3, nuclear import receptor; here its own monomer/dimer equilibrium
Kd [1]: 8300 ± 1000 nM

Kd [2]: 870 nM
Kd [3]: 870 nM
Kd [4]: 610 ± 100 nM
Kd [5]: 970 ± 130 nM
B1: RSY region of cold-inducible RNA-binding protein (CIRBP), residues 138-172 (domain or fragment, human, UniProt Q14011 138-172, looked up)
chain: SRDYYSSRSQSGGYSDRSSGGSYRDSYDSYATHNE
notes: Only residues 158-171 were modelled in PDB 8CMK; also called CIRBP^RSY; RSY-NLS; source: E. coli BL21-(DE3) Star, purified (denaturing lysis, Ni-NTA, TEV cleavage, second Ni-NTA, SEC Superdex 30); not shown: His6, N-terminal, cleaved; protein A, N-terminal, cleaved

Kd [6]: 1180 nM
Kd [7]: 6200 nM and 4240 nM
Kd [8]: 6200 nM
binding result [9]: binds
Kd [10]: 5780 nM
B2: CIRBP (157-172) synthetic peptide, wild type (peptide)
peptide: GGSYRDSYDSYATHNE
notes: also called mCIRBP^RSY; source: synthetic peptide (Peptide Specialty Laboratories GmbH)
